Assay results as given in paper PMC2199961.
Several values for one entry are separate records, joined by “and”; a condition that tells them apart may be missing. Equal entries are not always repeated.

Molecular target: aortic smooth muscle actin (alpha-smooth muscle actin) (bovine) (UniProt P62739)
Experiment: co-sedimentation

## aortic smooth muscle actin (alpha-smooth muscle actin) (from UniProt P62739 3-377) (natural protein)
  percent of actin in the pellet (actin alone): 10% and 20%
  percent of actin in the pellet (with anti-aSM-1 at 1:16 antibody/actin): > 60%
